Test results taken from article doi:10.1101/2023.07.08.548221.

Molecular target: strep-CsoS1A (hexameric shell protein CsoS1A) (Halothiobacillus neapolitanus) (UniProt P45689)
Assay: turbidity

Sequence of UniProt P45689 (P45689 whole entry): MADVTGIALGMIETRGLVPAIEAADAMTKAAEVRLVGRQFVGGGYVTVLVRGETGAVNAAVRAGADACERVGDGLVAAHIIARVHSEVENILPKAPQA

## His-CsoS2B (full-length CsoS2, long form) (from UniProt O85041-1 1-869) (natural protein)
  fold turbidity with CsoS1A against wtMR: 5 fold
